How the values were obtained:
HCV NS3 serine protease [1] = biological target: T1, HCV NS3 serine protease (Hepatitis C virus (isolate BK), UniProt P26663); assay: Activation of HCV NS3 serine protease in an in vitro translation assay (rabbit reticulocyte extracts, NS5AB precursor substrate); type: biochemical
T1 construct: substrate NS5AB precursor
Text: The plasmids described in FIG. 1 can also be used for in vitro synthesis of mRNA coding for the respective HCV proteins using the purified RNA polymerase enzyme of the phage T7 (Promega).
Generally the plasmids derived from pCite-1^R were linearized using suitable restriction enzymes and transcribed using the protocols supplied by the manufacturer (Promega). These synthetic mRNA, could later be used to synthesize the corresponding proteins in extracts of rabbit reticulocytes in the presence of canine pancreas microsomal membranes. The reticulocyte extracts, the canine pancreas microsomal membranes, like all the other material required, were purchased from Promega, which also supplied the instructions for the in vitro protein syntheses process described above.
Programming the in vitro translation mixture with mRNA transcribed from pCite(NS3) it is possible to observe synthesis of a protein with the expected molecular weight (68 kDa) containing the entire NS3 serine protease domain. The mRNA transcribed from pCite(NS5AB) guides the synthesis of a precursor of 115 kDa which contains NS5A and NS5B and is thus a substrate for the proteolytic activity associated with NS3.
This peptide was added to an in vitro translation mixture simultaneously programmed with the mRNAs transcribed from the plasmids pCite(NS3) and pCite(NS5AB).

HCV NS3 serine protease [2] = biological target: T1, HCV NS3 serine protease; assay: Activation of HCV NS3 serine protease in cultivated HeLa cells (vTF7-3 infection, plasmid cotransfection, immunoprecipitation); type: cell-based; conditions: NS4A expressed transiently in HeLa cells together with the NS3 serine protease domain; no cleavage without NS4A
[3] = biological target: T2, recombinant NS3 serine protease (Hepatitis C virus (isolate BK), UniProt P26663); assay: Assay of recombinant HCV NS3 serine protease purified from E. coli on a peptide substrate (NS4A/4B junction), HPLC; type: biochemical
T2 construct: NS4A/4B peptide substrate
T2 sequence (P26663 1027-1206): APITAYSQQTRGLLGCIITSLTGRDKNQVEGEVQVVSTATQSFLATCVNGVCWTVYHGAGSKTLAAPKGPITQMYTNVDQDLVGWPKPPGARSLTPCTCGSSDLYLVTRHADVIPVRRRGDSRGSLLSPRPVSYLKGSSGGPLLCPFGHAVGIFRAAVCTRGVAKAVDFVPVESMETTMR
Description: The recombinant NS3 serine protease produced according to the above procedure in E. coli could be assayed for activity by cleaving a substrate that provides detectable cleavage products. The signal is preferably detectable by colorimetric or fluorometric means. Methods such as HPLC and the like are also suitable.
For example, we used, as a substrate, synthetic peptides corresponding to the NS4A/4B junction of the HCV polyprotein.
The activity assay is performed by incubating 5-1000 μM substrate and 0.05-1 μM protease in buffer containing 25 mM Tris/HCl pH 7.5, 3 mM dithiothreitol, 0.5% (w/v) CHAPS and 10% (v/v) glycerol for 1-3 hours at 22° C. The reaction is stopped by addition of trifluoracetic acid to yield a final concentration of 0.1% (w/v).
The reaction products are then separated by HPLC on a C18 reverse phase column and quantitated according to their absorbance of the far UV light.

T1 sequence (P26663 1007-1615): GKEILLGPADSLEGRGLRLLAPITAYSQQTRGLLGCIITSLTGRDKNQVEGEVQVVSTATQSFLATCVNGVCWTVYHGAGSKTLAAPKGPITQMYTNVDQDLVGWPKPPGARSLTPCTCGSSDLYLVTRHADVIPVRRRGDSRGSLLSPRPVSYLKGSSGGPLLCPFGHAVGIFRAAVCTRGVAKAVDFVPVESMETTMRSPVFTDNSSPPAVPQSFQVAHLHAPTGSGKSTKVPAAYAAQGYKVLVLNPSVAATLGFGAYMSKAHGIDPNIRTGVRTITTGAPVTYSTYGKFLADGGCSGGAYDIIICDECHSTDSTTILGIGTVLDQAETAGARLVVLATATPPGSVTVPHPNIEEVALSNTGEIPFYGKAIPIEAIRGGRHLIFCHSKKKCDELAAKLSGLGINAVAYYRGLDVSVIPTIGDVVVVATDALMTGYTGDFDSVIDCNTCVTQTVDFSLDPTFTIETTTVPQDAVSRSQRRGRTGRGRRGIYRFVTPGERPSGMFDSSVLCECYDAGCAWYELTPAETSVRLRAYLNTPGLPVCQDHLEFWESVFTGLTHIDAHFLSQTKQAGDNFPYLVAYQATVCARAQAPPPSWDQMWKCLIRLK

| Substance | serine protease activity of NS3 on a substrate containing NS5A and NS5B (HCV NS3 serine protease [1]; in vitro translation, protein sequence containing NS4A present in addition to the NS3 protease domain, no activity with NS3 domain alone) | activation of the proteolytic activity associated with NS3 (cleavage of the precursor encoded by pCite(NS4B5A)) (HCV NS3 serine protease [2]) | stimulation of the proteolytic activity of the recombinant NS3 serine protease ([3]; increasing amounts of peptide, NS4A/4B junction peptide substrate, pH 7.5, 22° C., HPLC) | peptide to protease ratio at which maximal activity is reached ([3]; recombinant NS3 serine protease and synthetic peptide) | proteolytic activity of the NS3 serine protease domain on NS5AB substrate (HCV NS3 serine protease [1]; peptide added to in vitro translation mixture programmed with mRNAs from pCite(NS3) and pCite(NS5AB)) |
| --- | --- | --- | --- | --- | --- |
| NS4A: HCV non-structural hydrophobic protein of 6 kDa acting as cofactor of the NS3 serine protease | serine protease activity of NS3 becomes evident | can thus activate the proteolytic activity associated with NS3 |  |  |  |
| SEQ ID NO:3: Synthetic peptide derived from the C-terminal portion of SEQ ID NO:2 (NS4A); carboxy terminal cysteine replaced with alpha-aminobutyric acid (Abu) |  |  | up to 20 fold | equimolar amounts | proteolytic cleavage of the substrate in the two products containing the proteins NS5A and NS5B |
